Reference: publication doi:10.1101/2021.12.29.474402

Target: SARS-CoV-2 Omicron (B.1.1.529) spike, prefusion-stabilized soluble trimeric ectodomain (S-trimer) (SARS-CoV-2 | bacteriophage T4) (UniProt P0DTC2)
Experiment: cryo-EM structure

human ACE2, sequence (Q9BYF1 19-612): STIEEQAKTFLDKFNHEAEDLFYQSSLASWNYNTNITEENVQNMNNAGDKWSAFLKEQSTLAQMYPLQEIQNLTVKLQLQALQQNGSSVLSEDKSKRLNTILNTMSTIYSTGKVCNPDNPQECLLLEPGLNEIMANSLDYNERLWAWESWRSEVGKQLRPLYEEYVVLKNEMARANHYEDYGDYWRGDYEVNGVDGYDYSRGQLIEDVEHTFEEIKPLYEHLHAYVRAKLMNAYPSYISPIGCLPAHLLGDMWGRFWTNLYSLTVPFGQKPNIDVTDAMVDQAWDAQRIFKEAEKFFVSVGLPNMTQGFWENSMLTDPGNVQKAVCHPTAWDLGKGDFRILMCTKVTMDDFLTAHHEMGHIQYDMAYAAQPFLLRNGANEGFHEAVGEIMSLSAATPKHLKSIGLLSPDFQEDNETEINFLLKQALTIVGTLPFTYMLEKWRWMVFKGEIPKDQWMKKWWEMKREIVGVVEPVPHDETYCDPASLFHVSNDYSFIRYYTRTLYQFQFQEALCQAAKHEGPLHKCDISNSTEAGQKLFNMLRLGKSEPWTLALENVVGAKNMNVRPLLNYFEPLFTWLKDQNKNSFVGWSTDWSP

**Q.** Which stoichiometry N (ACE2 per S-trimer) does the source give for “human ACE2 (from UniProt Q9BYF1) (receptor)” here?
**A.** 2
